From doi:10.1101/2024.11.26.625467 come the findings set out here.

The target of this assay is CA09 N1 sNAp (stabilized NA protein, neuraminidase head of H1N1 A/California/07/2009) (influenza A virus H1N1 A/California/07/2009). Kind of assay: cryo-EM structure.

What is called stoichiometry N is a count of units in the complex or per binding partner. In the case of “CA09 N1 sNAp (stabilized NA protein, neuraminidase head of H1N1 A/California/07/2009) (domain or fragment)”, the stoichiometry N stood at 4.
